Assay results as given in patent publication US20240279356A1 (Xencor, published 2024).
Positions count from the first letter of the chain named.

Experiments:
human MSLN antigen [1] = target: T1, human MSLN antigen (human, UniProt Q13421 296-580, limits assumed); assay: MSLN KD of the binding domain (Octet BLI, Example 2B(a)); quoted in Example 3B(a)
T1 construct: Soluble antigen for BLI; also called Mesothelin; MESO
Excerpt: (§1) Variants of MESO-C were engineered by introducing point substitutions into the variable heavy region (VH) and the variable light region (VL) to generate 11 VH variants and 16 VL variants (sequences for which are depicted in FIG. 18 as H1.1-H1.13 and in FIG. 19 as L1.1-L1.18). An additional 4 VL variants were generated by combining useful point substitutions (sequences for which are depicted in FIG. 19 as L1.19-L1.22). WT and variant variable heavy regions were paired with WT and variant variable light regions to generate variant variable regions (Fvs) which were produced in the context of anti-MSLN×anti-CD3 bispecific antibodies. The bispecific antibodies were screened for MSLN binding affinity using Octet®, a BioLayer Interferometry (BLI)-based method. Experimental steps for Octet® generally include the following: Immobilization (capture of ligand to a biosensor); Association (dipping of ligand-coated biosensors into wells containing the analyte); and Dissociation (returning of biosensors to well containing buffer). In an initial screening, anti-human Fc sensors were used to capture the bispecific mAbs and dipped into human MSLN antigen (one concentration to screen large library). The resulting dissociation constant of illustrative variants (KD), association rate (kₐ), dissociation rate (kd), as well as sensorgram response are depicted in FIG. 20. In further screening of favorite variants identified in the initial screen (and combination variants), bispecific mAbs were dipped into multiple concentrations of human MSLN antigen, data for which are depicted in FIG. 21 (from various screens).

human MSLN antigen [2] = target: T1, human MSLN antigen; assay: Octet BLI on human MSLN antigen (Example 2B(a)); KD quoted in the FIG. 35 legend
Excerpt: as §1

human MSLN antigen [3] = target: T1, human MSLN antigen; assay: Octet BLI; bsAb on anti-human Fc sensor, human MSLN as analyte, one concentration
Method in brief: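 Biolayer interferometry: human MSLN served as analyte, with association then dissociation in buffer, against bispecific antibodies (MESO-C variant Fvs paired with anti-CD3) bound to anti-human Fc sensors. Kinetic constants (KD, ka, kd) came from single-concentration screening of the large library, or from multiple-concentration runs for favoured and combined variants.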

cyno MSLN [4] = target: T2, cyno MSLN (Macaca fascicularis (cynomolgus)); assay: Octet BLI, several concentrations; lower table, column head only 'cyno MSLN (M)'
T2 construct: soluble antigen for Octet; also called cynomolgus MSLN

cyno MSLN [5] = target: T2, cyno MSLN; assay: Octet BLI; bsAb on anti-human Fc sensor, cyno MSLN as analyte, one concentration
human MSLN antigen [6] = target: T1, human MSLN antigen; assay: MSLN binding affinity (Octet BLI, Example 2B(a)); quoted in the RTCC example

T1 sequence (Q13421 other isoform, or with tags, fused parts or gaps limits assumed): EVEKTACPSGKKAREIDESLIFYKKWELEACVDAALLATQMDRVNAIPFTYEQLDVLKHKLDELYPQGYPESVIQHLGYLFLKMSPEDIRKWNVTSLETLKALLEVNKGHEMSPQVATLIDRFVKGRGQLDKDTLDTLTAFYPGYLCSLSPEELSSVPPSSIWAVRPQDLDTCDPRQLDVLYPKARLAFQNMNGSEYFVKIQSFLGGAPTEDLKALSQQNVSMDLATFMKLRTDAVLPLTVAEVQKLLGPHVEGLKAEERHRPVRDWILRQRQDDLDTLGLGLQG

B1: MESO-C[MSLN]_H1_L1.9 (Fab, V domains shown)
VH: QVQLVQSGAEVKKPGASVKVSCKASGYTFTSYWMHWVRQAPGQGLEWMGMIHPNSDNTIYYEKFQGRVTMTVDKSISTAYMELSRLRSDDTAVYYCAIIITPVVPKFDYWGQGTLVTVSS
VL: DIVMTQSPDSLAVSLGERATINCKASHDVGTSVAWYQQKPGQSPKLLIYWASTRHTGVPDRFTGSGSGTDFTLTISSLQAEDVAVYFCQQYYSYPLTFGAGTKLEIK
notes: It was tested as the Fab arm(s) of anti-MSLN x anti-CD3 bsAbs
Human MSLN antigen [1]
  Kd: 3.9 nM

B2: MESO-C[MSLN]_H1.3_L1 (Fab, V domains shown)
VH: B1 VH with M50W
VL: B1 VL with Y92S
notes: as for B1
Human MSLN antigen [1]
  Kd: 9.2 nM

B3: MESO-C[MSLN]_H1_L1.5 (Fab, V domains shown)
VH: B1 VH
VL: B1 VL with S32Y, Y92S
notes: as for B1
Human MSLN antigen [1]
  Kd: ~12.8 nM

B4: MESO-C[MSLN]_H1.12_L1.9 (Fab, V domains shown)
VH: B1 VH with E62Q
VL: B1 VL
notes: as for B1
Human MSLN antigen [1]
  Kd: 10.2 nM

B5: XENP32552 (bispecific antibody)
heavy: QVQLVQSGAEVKKPGASVKVSCKASGYTFTSYWMHWVRQAPGQGLEWMGWIHPNSDNTIYYEKFQGRVTMTVDKSISTAYMELSRLRSDDTAVYYCAIIITPVVPKFDYWGQGTLVTVSSASTKGPSVFPLAPSSKSTSGGTAALGCLVKDYFPEPVTVSWNSGALTSGVHTFPAVLQSSGLYSLSSVVTVPSSSLGTQTYICNVNHKPSDTKVDKKVEPKSCDKTHTCPPCPAPPVAGPSVFLFPPKPKDTLMISRTPEVTCVVVDVKHEDPEVKFNWYVDGVEVHNAKTKPREEEYNSTYRVVSVLTVLHQDWLNGKEYKCKVSNKALPAPIEKTISKAKGQPREPQVYTLPPSREEMTKNQVSLTCDVSGFYPSDIAVEWESDGQPENNYKTTPPVLDSDGSFFLYSKLTVDKSRWEQGDVFSCSVMHEALHNHYTQKSLSLSPGK
scFv-Fc: not shown
light: DIVMTQSPDSLAVSLGERATINCKASHDVGTSVAWYQQKPGQSPKLLIYWASTRHTGVPDRFTGSGSGTDFTLTISSLQAEDVAVYFCQQYSSYPLTFGAGTKLEIKRTVAAPSVFIFPPSDEQLKSGTASVVCLLNNFYPREAKVQWKVDNALQSGNSQESVTEQDSKDSTYSLSSTLTLSKADYEKHKVYACEVTHQGLSSPVTKSFNRGEC
notes: 1+1 Fab-scFv-Fc
Human MSLN antigen [2]
  Kd: 9.2 nM
Human MSLN antigen [3]
  Kd: 30 nM
  Response: 0.915
  koff: 0.0147 s⁻¹
  kon: 491000 M⁻¹ s⁻¹
Cyno MSLN [4]
  Kd: 10 nM
Cyno MSLN [5]
  Kd: 32.1 nM
  Response: 0.827
  koff: 0.0148 s⁻¹
  kon: 459000 M⁻¹ s⁻¹

B6: XENP32567 (bispecific antibody)
heavy: B5 heavy with W50M
scFv-Fc: not shown
light: B5 light with S92Y
notes: 1+1 Fab-scFv-Fc
Human MSLN antigen [2]
  Kd: 3.9 nM
Human MSLN antigen [3]
  Kd: 15.3 nM
  Response: 0.953
  koff: 0.00887 s⁻¹
  kon: 578000 M⁻¹ s⁻¹
Cyno MSLN [4]
  Kd: 6.7 nM
Cyno MSLN [5]
  Kd: 21.5 nM
  Response: 0.822
  koff: 0.013 s⁻¹
  kon: 608000 M⁻¹ s⁻¹

B7: XENP33367 (bispecific antibody)
heavy: B5 heavy
Fab-scFv-Fc: QVQLVQSGAEVKKPGASVKVSCKASGYTFTSYWMHWVRQAPGQGLEWMGWIHPNSDNTIYYEKFQGRVTMTVDKSISTAYMELSRLRSDDTAVYYCAIIITPVVPKFDYWGQGTLVTVSSASTKGPSVFPLAPSSKSTSGGTAALGCLVKDYFPEPVTVSWNSGALTSGVHTFPAVLQSSGLYSLSSVVTVPSSSLGTQTYICNVNHKPSNTKVDKKVEPKSCGGGGSGGGGSQAVVTQEPSLTVSPGGTVTLTCGSSTGAVTTSNYANWVQQKPGKSPRGLIGGTNKRAPGVPARFSGSLLGGKAALTISGAQPEDEADYYCALWYSNHWVFGGGTKLTVLGKPGSGKPGSGKPGSGKPGSEVQLVESGGGLVQPGGSLRLSCAASGFTFSTYAMNWVRQAPGKGLEWVGRIRSKANNYATYYADSVKGRFTISRDDSKNTLYLQMNSLRAEDTAVYYCVRHGNFGDSYVSWFAYWGQGTLVTVSSGGGGSGGGGSKTHTCPPCPAPPVAGPSVFLFPPKPKDTLMISRTPEVTCVVVDVKHEDPEVKFNWYVDGVEVHNAKTKPREEQYNSTYRVVSVLTVLHQDWLNGKEYKCKVSNKALPAPIEKTISKAKGQPREPQVYTLPPSREQMTKNQVKLTCLVKGFYPSDIAVEWESNGQPENNYKTTPPVLDSDGSFFLYSKLTVDKSRWQQGNVFSCSVMHEALHNHYTQKSLSLSPGK
light: B5 light with Y94F
notes: 2+1 Fab2-scFv-Fc
Human MSLN antigen [6]
  Kd: 246 nM

B8: XENP33366 (bispecific antibody)
heavy: B5 heavy
Fab-scFv-Fc: B7 Fab-scFv-Fc
light: B5 light with T31Q
notes: 2+1 Fab2-scFv-Fc
Human MSLN antigen [6]
  Kd: 90.4 nM
